Reference: article PMC8932645
No end group written: not given here. *: point of attachment. Palmitoyl = CCCCCCCCCCCCCCCC(=O)*

B1: truncated, palmitoylated SHH EP (9aa, residues 24–32) (peptide)
peptide: Palmitoyl-SGPGRGFGK

Experiments:
[1] = biological target: Xenopus laevis PTCH1 (residues 1–1178) (Xenopus laevis); assay: native gel or EMSA
[2] = biological target: GAS1 ectodomain (GAS1-Ecto), FLAG-HaloTag7-tagged (human) (UniProt P54826); assay: ITC
Sequence of UniProt P54826 (P54826 40-317): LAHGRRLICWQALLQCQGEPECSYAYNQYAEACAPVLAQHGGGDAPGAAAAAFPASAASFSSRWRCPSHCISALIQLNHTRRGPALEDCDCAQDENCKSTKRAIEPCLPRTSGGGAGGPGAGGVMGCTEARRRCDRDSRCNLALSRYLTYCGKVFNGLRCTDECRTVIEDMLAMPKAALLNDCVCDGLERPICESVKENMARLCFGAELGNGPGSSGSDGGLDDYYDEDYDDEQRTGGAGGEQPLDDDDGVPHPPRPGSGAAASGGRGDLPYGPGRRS

Row | Molecule | percent of SHH transferred from GAS1 to an equimolar amount of PTCH1 [1] | Kd [2]
1 | dually lipidated Sonic hedgehog (SHH) (from UniProt Q15465 24-197) (ligand) | > 50% | 
2 | octanoylated SHH effector peptide (EP) |  | 34.6 µM
3 | palmitoylated SHH effector peptide (EP, SHH residues 24–45) |  | 3.84 µM
4 | B1 |  | 3.72 µM
